Results reported in IntAct's records for PubMed 24606901.

B1: Succinate dehydrogenase [ubiquinone] iron-sulfur subunit, mitochondrial (Homo sapiens), P21912 (parent)
chain: MAAVVALSLRRRLPATTLGGACLQASRGAQTAAATAPRIKKFAIYRWDPDKAGDKPHMQTYEVDLNKCGPMVLDALIKIKNEVDSTLTFRRSCREGICGSCAMNINGGNTLACTRRIDTNLNKVSKIYPLPHMYVIKDLVPDLSNFYAQYKSIEPYLKKKDESQEGKQQYLQSIEEREKLDGLYECILCACCSTSCPSYWWNGDKYLGPAVLMQAYRWMIDSRDDFTEERLAKLQDPFSLYRCHTIMNCTRTCPKGLNPGKAIAEIKKMMATYKEKKASV
partner: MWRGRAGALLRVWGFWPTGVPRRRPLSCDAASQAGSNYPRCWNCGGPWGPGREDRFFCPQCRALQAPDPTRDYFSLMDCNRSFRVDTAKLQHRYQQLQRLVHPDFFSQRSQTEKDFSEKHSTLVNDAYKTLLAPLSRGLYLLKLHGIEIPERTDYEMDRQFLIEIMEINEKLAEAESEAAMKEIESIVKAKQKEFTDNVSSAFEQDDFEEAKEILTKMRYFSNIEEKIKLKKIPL

Variants of: B1
Conditions: with hsc20_human HSCB

Variant	effect of a mutation on the interaction
K267A;K268A	disrupting interaction strength
K276A;K277A	disrupting interaction

Variants of: B1
Conditions: with hsc20_human HSCB
Remark: another data set of the same source

Variant	effect of a mutation on the interaction
L240A	disrupting interaction strength

Variants of: B1
Conditions: with hsc20_human HSCB
Remark: another data set of the same source

Variant	effect of a mutation on the interaction
I44A	disrupting interaction strength
